The source of these data is US20260001928A1 (CORTERIA PHARMACEUTICALS, priority 2022, published 2026).

The target of this assay is Rat CRF2 a (corticotropin-releasing factor receptor 2), on the A7R5 rat aortic smooth muscle cell line (rat, UniProt P47866 20-411). Briefly: cell-based or functional assay.

*1 amine or outer side, *2 acyl side, *3 side chain or, on linkers, in order; H or OH if unused. Where no end group is shown, it is not given here. Side-chain parts run from the residue outwards. [ ]: non-standard residue; d: D form. The star is where a group is joined. C20 diacid = O=C(O)CCCCCCCCCCCCCCCCCCC(=O)*; C18 diacid = O=C(O)CCCCCCCCCCCCCCCCC(=O)*; γGlu = O=C(O)[C@H](CCC(=O)[*:2])N[*:1]; C14 diacid = O=C(O)CCCCCCCCCCCCC(=O)*; NMeI = CC[C@H](C)[C@H](NC)C(=O)O; Pentanoyl = CCCCC(=O)*; Aib = CC(C)(N)C(=O)O

Rat CRF2 a (corticotropin-releasing factor receptor 2), on the A7R5 rat aortic smooth muscle cell line, sequence (P47866 20-411): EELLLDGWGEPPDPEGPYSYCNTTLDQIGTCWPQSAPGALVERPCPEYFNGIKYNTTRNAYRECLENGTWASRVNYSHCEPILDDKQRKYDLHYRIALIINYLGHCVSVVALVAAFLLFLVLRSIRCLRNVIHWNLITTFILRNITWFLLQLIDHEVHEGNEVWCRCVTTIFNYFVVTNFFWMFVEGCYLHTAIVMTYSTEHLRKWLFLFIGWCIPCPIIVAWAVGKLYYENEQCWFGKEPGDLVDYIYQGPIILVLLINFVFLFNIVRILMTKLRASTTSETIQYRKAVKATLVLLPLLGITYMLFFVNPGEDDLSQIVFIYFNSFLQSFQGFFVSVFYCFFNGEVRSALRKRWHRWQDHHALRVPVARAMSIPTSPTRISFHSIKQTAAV

B1: peptide of SEQ ID NO: 215 (peptide)
peptide: [NMeI]VLSLD[dV]PIKLK([γGlu-C20 diacid])KILLEQEKQK[Aib]QREQAETN[Aib]QILAQV-NH2
modifications: N-terminus assumed
SMILES: CC[C@H](C)[C@H](NC)C(=O)N[C@H](C(=O)N[C@@H](CC(C)C)C(=O)N[C@@H](CO)C(=O)N[C@@H](CC(C)C)C(=O)N[C@@H](CC(=O)O)C(=O)N[C@@H](C(=O)N1CCC[C@H]1C(=O)N[C@H](C(=O)N[C@@H](CCCCN)C(=O)N[C@@H](CC(C)C)C(=O)N[C@@H](CCCCNC(=O)CC[C@H](NC(=O)CCCCCCCCCCCCCCCCCCC(=O)O)C(=O)O)C(=O)N[C@@H](CCCCN)C(=O)N[C@H](C(=O)N[C@@H](CC(C)C)C(=O)N[C@@H](CC(C)C)C(=O)N[C@@H](CCC(=O)O)C(=O)N[C@@H](CCC(N)=O)C(=O)N[C@@H](CCC(=O)O)C(=O)N[C@@H](CCCCN)C(=O)N[C@@H](CCC(N)=O)C(=O)N[C@@H](CCCCN)C(=O)NC(C)(C)C(=O)N[C@@H](CCC(N)=O)C(=O)N[C@@H](CCCNC(=N)N)C(=O)N[C@@H](CCC(=O)O)C(=O)N[C@@H](CCC(N)=O)C(=O)N[C@@H](C)C(=O)N[C@@H](CCC(=O)O)C(=O)N[C@H](C(=O)N[C@@H](CC(N)=O)C(=O)NC(C)(C)C(=O)N[C@@H](CCC(N)=O)C(=O)N[C@H](C(=O)N[C@@H](CC(C)C)C(=O)N[C@@H](C)C(=O)N[C@@H](CCC(N)=O)C(=O)N[C@H](C(N)=O)C(C)C)[C@@H](C)CC)[C@@H](C)O)[C@@H](C)CC)[C@@H](C)CC)C(C)C)C(C)C
B1: the “EC50 [nM] 0% HSA (cAMP, A7R5 rat aortic smooth muscle cells)” value (“EC50 [nM] 0% HSA” below) was determined as 0.04 nM.

B2: peptide of SEQ ID NO: 212 (peptide)
peptide: Ac-IVLSLD[dV]PIKLK([γGlu-C20 diacid])KILLEQEKQKAQREQAETN[Aib]QILAQV-NH2
SMILES: CC[C@H](C)[C@H](NC(C)=O)C(=O)N[C@H](C(=O)N[C@@H](CC(C)C)C(=O)N[C@@H](CO)C(=O)N[C@@H](CC(C)C)C(=O)N[C@@H](CC(=O)O)C(=O)N[C@@H](C(=O)N1CCC[C@H]1C(=O)N[C@H](C(=O)N[C@@H](CCCCN)C(=O)N[C@@H](CC(C)C)C(=O)N[C@@H](CCCCNC(=O)CC[C@H](NC(=O)CCCCCCCCCCCCCCCCCCC(=O)O)C(=O)O)C(=O)N[C@@H](CCCCN)C(=O)N[C@H](C(=O)N[C@@H](CC(C)C)C(=O)N[C@@H](CC(C)C)C(=O)N[C@@H](CCC(=O)O)C(=O)N[C@@H](CCC(N)=O)C(=O)N[C@@H](CCC(=O)O)C(=O)N[C@@H](CCCCN)C(=O)N[C@@H](CCC(N)=O)C(=O)N[C@@H](CCCCN)C(=O)N[C@@H](C)C(=O)N[C@@H](CCC(N)=O)C(=O)N[C@@H](CCCNC(=N)N)C(=O)N[C@@H](CCC(=O)O)C(=O)N[C@@H](CCC(N)=O)C(=O)N[C@@H](C)C(=O)N[C@@H](CCC(=O)O)C(=O)N[C@H](C(=O)N[C@@H](CC(N)=O)C(=O)NC(C)(C)C(=O)N[C@@H](CCC(N)=O)C(=O)N[C@H](C(=O)N[C@@H](CC(C)C)C(=O)N[C@@H](C)C(=O)N[C@@H](CCC(N)=O)C(=O)N[C@H](C(N)=O)C(C)C)[C@@H](C)CC)[C@@H](C)O)[C@@H](C)CC)[C@@H](C)CC)C(C)C)C(C)C
Turning to B2, the “EC50 [nM] 0% HSA” value is 0.08 nM.

B3: peptide of SEQ ID NO: 206 (peptide)
peptide: Ac-IVLSLD[dV]PIKLK([γGlu-C20 diacid])KILLEQEKQKKQREQAETN[Aib]QILAQV-NH2
SMILES: CC[C@H](C)[C@H](NC(C)=O)C(=O)N[C@H](C(=O)N[C@@H](CC(C)C)C(=O)N[C@@H](CO)C(=O)N[C@@H](CC(C)C)C(=O)N[C@@H](CC(=O)O)C(=O)N[C@@H](C(=O)N1CCC[C@H]1C(=O)N[C@H](C(=O)N[C@@H](CCCCN)C(=O)N[C@@H](CC(C)C)C(=O)N[C@@H](CCCCNC(=O)CC[C@H](NC(=O)CCCCCCCCCCCCCCCCCCC(=O)O)C(=O)O)C(=O)N[C@@H](CCCCN)C(=O)N[C@H](C(=O)N[C@@H](CC(C)C)C(=O)N[C@@H](CC(C)C)C(=O)N[C@@H](CCC(=O)O)C(=O)N[C@@H](CCC(N)=O)C(=O)N[C@@H](CCC(=O)O)C(=O)N[C@@H](CCCCN)C(=O)N[C@@H](CCC(N)=O)C(=O)N[C@@H](CCCCN)C(=O)N[C@@H](CCCCN)C(=O)N[C@@H](CCC(N)=O)C(=O)N[C@@H](CCCNC(=N)N)C(=O)N[C@@H](CCC(=O)O)C(=O)N[C@@H](CCC(N)=O)C(=O)N[C@@H](C)C(=O)N[C@@H](CCC(=O)O)C(=O)N[C@H](C(=O)N[C@@H](CC(N)=O)C(=O)NC(C)(C)C(=O)N[C@@H](CCC(N)=O)C(=O)N[C@H](C(=O)N[C@@H](CC(C)C)C(=O)N[C@@H](C)C(=O)N[C@@H](CCC(N)=O)C(=O)N[C@H](C(N)=O)C(C)C)[C@@H](C)CC)[C@@H](C)O)[C@@H](C)CC)[C@@H](C)CC)C(C)C)C(C)C
As for B3, the “EC50 [nM] 0% HSA” value is 0.06 nM.

B4: peptide of SEQ ID NO: 145 (peptide)
peptide: [NMeI]VLSLD[dV]PIKLK([γGlu-C18 diacid])KILLEQEKQK[Aib]QREQAETN[Aib]QILAQV-NH2
modifications: N-terminus assumed
SMILES: CC[C@H](C)[C@H](NC)C(=O)N[C@H](C(=O)N[C@@H](CC(C)C)C(=O)N[C@@H](CO)C(=O)N[C@@H](CC(C)C)C(=O)N[C@@H](CC(=O)O)C(=O)N[C@@H](C(=O)N1CCC[C@H]1C(=O)N[C@H](C(=O)N[C@@H](CCCCN)C(=O)N[C@@H](CC(C)C)C(=O)N[C@@H](CCCCNC(=O)CC[C@H](NC(=O)CCCCCCCCCCCCCCCCC(=O)O)C(=O)O)C(=O)N[C@@H](CCCCN)C(=O)N[C@H](C(=O)N[C@@H](CC(C)C)C(=O)N[C@@H](CC(C)C)C(=O)N[C@@H](CCC(=O)O)C(=O)N[C@@H](CCC(N)=O)C(=O)N[C@@H](CCC(=O)O)C(=O)N[C@@H](CCCCN)C(=O)N[C@@H](CCC(N)=O)C(=O)N[C@@H](CCCCN)C(=O)NC(C)(C)C(=O)N[C@@H](CCC(N)=O)C(=O)N[C@@H](CCCNC(=N)N)C(=O)N[C@@H](CCC(=O)O)C(=O)N[C@@H](CCC(N)=O)C(=O)N[C@@H](C)C(=O)N[C@@H](CCC(=O)O)C(=O)N[C@H](C(=O)N[C@@H](CC(N)=O)C(=O)NC(C)(C)C(=O)N[C@@H](CCC(N)=O)C(=O)N[C@H](C(=O)N[C@@H](CC(C)C)C(=O)N[C@@H](C)C(=O)N[C@@H](CCC(N)=O)C(=O)N[C@H](C(N)=O)C(C)C)[C@@H](C)CC)[C@@H](C)O)[C@@H](C)CC)[C@@H](C)CC)C(C)C)C(C)C
In the case of B4, the “EC50 [nM] 0% HSA” value worked out at 0.05 nM.
Pentanoyl-VLSLD[dV]PIKLK([γGlu-C14 diacid])KILLEQEKQKKQREQAETN[Aib]QILAQV-NH2 [peptide of SEQ ID NO: 86]: the “EC50 [nM] 0% HSA” value worked out at 0.68 nM.

B5: peptide of SEQ ID NO: 189 (peptide)
peptide: Ac-IVLSLD[dV]PIKLK([γGlu-C18 diacid])KILLEQEKQKAQREQAETN[Aib]QILAQV-NH2
SMILES: CC[C@H](C)[C@H](NC(C)=O)C(=O)N[C@H](C(=O)N[C@@H](CC(C)C)C(=O)N[C@@H](CO)C(=O)N[C@@H](CC(C)C)C(=O)N[C@@H](CC(=O)O)C(=O)N[C@@H](C(=O)N1CCC[C@H]1C(=O)N[C@H](C(=O)N[C@@H](CCCCN)C(=O)N[C@@H](CC(C)C)C(=O)N[C@@H](CCCCNC(=O)CC[C@H](NC(=O)CCCCCCCCCCCCCCCCC(=O)O)C(=O)O)C(=O)N[C@@H](CCCCN)C(=O)N[C@H](C(=O)N[C@@H](CC(C)C)C(=O)N[C@@H](CC(C)C)C(=O)N[C@@H](CCC(=O)O)C(=O)N[C@@H](CCC(N)=O)C(=O)N[C@@H](CCC(=O)O)C(=O)N[C@@H](CCCCN)C(=O)N[C@@H](CCC(N)=O)C(=O)N[C@@H](CCCCN)C(=O)N[C@@H](C)C(=O)N[C@@H](CCC(N)=O)C(=O)N[C@@H](CCCNC(=N)N)C(=O)N[C@@H](CCC(=O)O)C(=O)N[C@@H](CCC(N)=O)C(=O)N[C@@H](C)C(=O)N[C@@H](CCC(=O)O)C(=O)N[C@H](C(=O)N[C@@H](CC(N)=O)C(=O)NC(C)(C)C(=O)N[C@@H](CCC(N)=O)C(=O)N[C@H](C(=O)N[C@@H](CC(C)C)C(=O)N[C@@H](C)C(=O)N[C@@H](CCC(N)=O)C(=O)N[C@H](C(N)=O)C(C)C)[C@@H](C)CC)[C@@H](C)O)[C@@H](C)CC)[C@@H](C)CC)C(C)C)C(C)C
As to B5, the “EC50 [nM] 0% HSA” value worked out at 0.15 nM.
As for [NMeI]VLSLD[dV]PIKLK([γGlu-C14 diacid])KILLEQEKQKKQREQAETN[Aib]QILAQV-NH2 [peptide of SEQ ID NO: 87], the figure is 0.32 nM.

B6: peptide of SEQ ID NO: 217 (peptide)
peptide: [NMeI]VLSLD[dV]PIKLK([γGlu-C20 diacid])KILLEQEKQKAQREQAETN[Aib]QILAQV-NH2
modifications: N-terminus assumed
SMILES: CC[C@H](C)[C@H](NC)C(=O)N[C@H](C(=O)N[C@@H](CC(C)C)C(=O)N[C@@H](CO)C(=O)N[C@@H](CC(C)C)C(=O)N[C@@H](CC(=O)O)C(=O)N[C@@H](C(=O)N1CCC[C@H]1C(=O)N[C@H](C(=O)N[C@@H](CCCCN)C(=O)N[C@@H](CC(C)C)C(=O)N[C@@H](CCCCNC(=O)CC[C@H](NC(=O)CCCCCCCCCCCCCCCCCCC(=O)O)C(=O)O)C(=O)N[C@@H](CCCCN)C(=O)N[C@H](C(=O)N[C@@H](CC(C)C)C(=O)N[C@@H](CC(C)C)C(=O)N[C@@H](CCC(=O)O)C(=O)N[C@@H](CCC(N)=O)C(=O)N[C@@H](CCC(=O)O)C(=O)N[C@@H](CCCCN)C(=O)N[C@@H](CCC(N)=O)C(=O)N[C@@H](CCCCN)C(=O)N[C@@H](C)C(=O)N[C@@H](CCC(N)=O)C(=O)N[C@@H](CCCNC(=N)N)C(=O)N[C@@H](CCC(=O)O)C(=O)N[C@@H](CCC(N)=O)C(=O)N[C@@H](C)C(=O)N[C@@H](CCC(=O)O)C(=O)N[C@H](C(=O)N[C@@H](CC(N)=O)C(=O)NC(C)(C)C(=O)N[C@@H](CCC(N)=O)C(=O)N[C@H](C(=O)N[C@@H](CC(C)C)C(=O)N[C@@H](C)C(=O)N[C@@H](CCC(N)=O)C(=O)N[C@H](C(N)=O)C(C)C)[C@@H](C)CC)[C@@H](C)O)[C@@H](C)CC)[C@@H](C)CC)C(C)C)C(C)C
In the case of B6, the “EC50 [nM] 0% HSA” value was 0.06 nM.
